Molecular target: GST
Experiment: SPR

Kd: > 5 µM
B1: Recombinant His-tagged Aurora-A (enzyme)
chain: MDRSKENCISGPVKATAPVGGPKRVLVTQQFPCQNPLPVNSGQAQRVLCPSNSSQRIPLQAQKLVSSHKPVQNQKQKQLQATSVPHPVSRPLNNTQKSKQPLPSAPENNPEEELASKQKNEESKKRQWALEDFEIGRPLGKGKFGNVYLAREKQSKFILALKVLFKAQLEKAGVEHQLRREVEIQSHLRHPNILRLYGYFHDATRVYLILEYAPLGTVYRELQKLSKFDEQRTATYITELANALSYCHSKRVIHRDIKPENLLLGSAGELKIADFGWSVHAPSSRRTTLCGTLDYLPPEMIEGRMHDEKVDLWSLGVLCYEFLVGKPPFEANTYQETYKRISRVEFTFPDFVTEGARDLISRLLKHNPSQRPMLREVLEHPWITANSSKPSNCQNKESASKQS
